In IntAct's records for PubMed 19229292:

What was measured:
[1] = biological target: dlg1_rat Dlg1 (UniProt Q62696)
[2] = biological target: dlg2_rat Dlg2 (UniProt Q63622)
[3] = biological target: dlg3_rat Dlg3 (UniProt Q62936)

Measured: effect of a mutation on the interaction

dlg3_rat Dlg3, sequence (Q62936 whole entry): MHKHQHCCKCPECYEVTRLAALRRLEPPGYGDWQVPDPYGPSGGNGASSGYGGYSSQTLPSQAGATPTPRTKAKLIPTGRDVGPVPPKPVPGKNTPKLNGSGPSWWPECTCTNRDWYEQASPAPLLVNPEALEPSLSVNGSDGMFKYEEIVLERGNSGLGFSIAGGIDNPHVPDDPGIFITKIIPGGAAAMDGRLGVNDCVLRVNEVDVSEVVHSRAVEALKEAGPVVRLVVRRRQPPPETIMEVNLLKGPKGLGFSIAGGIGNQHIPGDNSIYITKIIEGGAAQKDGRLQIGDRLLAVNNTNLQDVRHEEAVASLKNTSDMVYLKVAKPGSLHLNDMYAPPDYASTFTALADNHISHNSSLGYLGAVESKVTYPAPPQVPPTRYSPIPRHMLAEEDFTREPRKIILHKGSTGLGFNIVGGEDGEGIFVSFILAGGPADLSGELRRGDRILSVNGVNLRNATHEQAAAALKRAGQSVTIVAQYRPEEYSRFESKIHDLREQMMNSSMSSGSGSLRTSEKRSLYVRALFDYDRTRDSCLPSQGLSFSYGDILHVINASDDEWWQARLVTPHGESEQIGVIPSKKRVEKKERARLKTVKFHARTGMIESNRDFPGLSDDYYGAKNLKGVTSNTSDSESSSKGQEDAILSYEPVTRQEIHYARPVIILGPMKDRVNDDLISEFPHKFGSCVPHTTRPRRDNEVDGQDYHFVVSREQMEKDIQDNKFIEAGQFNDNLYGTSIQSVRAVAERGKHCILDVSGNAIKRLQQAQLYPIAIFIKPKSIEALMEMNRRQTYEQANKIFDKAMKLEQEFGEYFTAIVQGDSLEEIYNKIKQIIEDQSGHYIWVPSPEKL
dlg2_rat Dlg2, sequence (Q63622 whole entry, looked up): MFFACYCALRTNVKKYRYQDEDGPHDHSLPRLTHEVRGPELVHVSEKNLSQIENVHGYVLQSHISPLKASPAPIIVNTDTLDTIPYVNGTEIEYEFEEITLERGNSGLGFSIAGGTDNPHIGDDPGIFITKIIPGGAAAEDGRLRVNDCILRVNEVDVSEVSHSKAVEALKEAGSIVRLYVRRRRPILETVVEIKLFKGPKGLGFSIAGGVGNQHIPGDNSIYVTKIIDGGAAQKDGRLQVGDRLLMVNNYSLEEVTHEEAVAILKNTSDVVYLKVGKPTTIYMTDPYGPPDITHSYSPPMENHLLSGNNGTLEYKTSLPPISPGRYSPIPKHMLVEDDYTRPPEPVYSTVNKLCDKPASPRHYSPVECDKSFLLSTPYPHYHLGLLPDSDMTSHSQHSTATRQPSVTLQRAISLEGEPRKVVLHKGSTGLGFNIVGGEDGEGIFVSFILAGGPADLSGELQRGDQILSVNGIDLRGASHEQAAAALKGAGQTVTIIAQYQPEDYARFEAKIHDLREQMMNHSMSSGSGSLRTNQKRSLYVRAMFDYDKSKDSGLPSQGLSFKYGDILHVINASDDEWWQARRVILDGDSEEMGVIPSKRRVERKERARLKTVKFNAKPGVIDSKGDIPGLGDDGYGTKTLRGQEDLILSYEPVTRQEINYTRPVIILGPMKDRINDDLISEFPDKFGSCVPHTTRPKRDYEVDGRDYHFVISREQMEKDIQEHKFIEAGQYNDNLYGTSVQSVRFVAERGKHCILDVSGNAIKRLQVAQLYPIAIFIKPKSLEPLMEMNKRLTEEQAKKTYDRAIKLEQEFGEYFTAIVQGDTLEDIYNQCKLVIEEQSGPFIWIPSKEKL
dlg1_rat Dlg1, sequence (Q62696 whole entry): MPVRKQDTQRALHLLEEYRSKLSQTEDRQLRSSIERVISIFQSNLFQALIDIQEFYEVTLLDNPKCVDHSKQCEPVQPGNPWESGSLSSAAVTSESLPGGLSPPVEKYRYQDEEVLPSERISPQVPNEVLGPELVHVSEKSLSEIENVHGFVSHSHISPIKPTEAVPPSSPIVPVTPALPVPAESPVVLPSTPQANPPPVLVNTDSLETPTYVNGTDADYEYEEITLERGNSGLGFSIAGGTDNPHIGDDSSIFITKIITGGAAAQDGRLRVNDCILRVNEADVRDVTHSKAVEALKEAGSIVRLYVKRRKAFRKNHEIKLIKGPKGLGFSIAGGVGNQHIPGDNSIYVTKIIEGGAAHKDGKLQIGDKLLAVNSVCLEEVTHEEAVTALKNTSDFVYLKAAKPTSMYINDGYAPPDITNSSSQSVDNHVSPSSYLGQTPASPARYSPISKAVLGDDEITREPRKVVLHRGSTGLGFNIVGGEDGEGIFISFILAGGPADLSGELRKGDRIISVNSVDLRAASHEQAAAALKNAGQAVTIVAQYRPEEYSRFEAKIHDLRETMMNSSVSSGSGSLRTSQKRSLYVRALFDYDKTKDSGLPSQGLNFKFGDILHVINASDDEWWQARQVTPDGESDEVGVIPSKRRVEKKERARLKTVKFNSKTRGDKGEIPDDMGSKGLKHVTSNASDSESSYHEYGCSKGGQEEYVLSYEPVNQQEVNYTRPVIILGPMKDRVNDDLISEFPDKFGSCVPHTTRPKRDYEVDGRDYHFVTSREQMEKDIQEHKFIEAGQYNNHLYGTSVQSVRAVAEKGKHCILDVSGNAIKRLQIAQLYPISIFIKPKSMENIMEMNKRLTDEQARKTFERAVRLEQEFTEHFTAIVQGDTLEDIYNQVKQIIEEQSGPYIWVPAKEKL

Diacylglycerol kinase zeta (Rattus norvegicus (Rat)), O08560 V929A
disrupting interaction: all assays above
